The chains are these.
T1: recombinant human CTLA4-Fc (Sino Biological, 11159-H03H) (human, UniProt P16410 36-162)
T1 construct: bought; also called human CTLA4 fused with human FC fragment
T1 sequence (looked up): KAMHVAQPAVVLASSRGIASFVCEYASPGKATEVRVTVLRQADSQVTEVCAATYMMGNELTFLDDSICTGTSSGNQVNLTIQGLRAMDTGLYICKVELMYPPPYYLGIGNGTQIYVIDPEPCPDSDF

B1: TY22401 (antibody, V domains shown)
VH: EVQLVESGGGLVQPGGSLRLSCAASGYSISSGYHWSWIRQAPGKGLEWLARIDWDDDKYYSTSLKSRLTISRDNSKNTLYLQLNSLRAEDTAVYYCARSYVYFDYWGQGTLVTVSS
VL: EVGSYNFVADSCPDHPYPCSASGRSAGGGGSPLGLAGSGGSDIQLTQSPSSLSASVGDRVTITCRASQSVRGRFLAWYQQKPGKAPKLLIYDASNRATGIPSRFSGSGSGTDFTLTISSLQPEDFATYYCQQSSSWPPTFGQGTKVEIKR
notes: peptide fused to the N-terminus of the light chain; also called B13189 (peptide name)
B2: TY22404 (antibody, IgG1, V domains shown)
VH: B1 VH
VL: EVGSYPNPSSDCVPYYYACAYSGRSAGGGGSPLGLAGSGGSDIQLTQSPSSLSASVGDRVTITCRASQSVRGRFLAWYQQKPGKAPKLLIYDASNRATGIPSRFSGSGSGTDFTLTISSLQPEDFATYYCQQSSSWPPTFGQGTKVEIKR
notes: also called B13197 (peptide name)
B3: TY22402 (antibody, IgG1, V domains shown)
VH: B1 VH
VL: EVGSYIVHHSDCDAFYPYCDSSGRSAGGGGSPLGLAGSGGSDIQLTQSPSSLSASVGDRVTITCRASQSVRGRFLAWYQQKPGKAPKLLIYDASNRATGIPSRFSGSGSGTDFTLTISSLQPEDFATYYCQQSSSWPPTFGQGTKVEIKR
notes: also called B13180 (peptide name)
B4: TY22565 (antibody, IgG1, V domains shown)
VH: B1 VH
VL: B2 VL with N7Q
B5: TY22566 (antibody, IgG1, V domains shown)
VH: B1 VH
VL: B2 VL with S9A
B6: TY22564 (antibody, IgG1, V domains shown)
VH: B1 VH
VL: B3 VL with I6Y, V7S, H8A, H9Y, S10P, D11A, A14S, F15H, D20N, S22A
B7: TY22563 (antibody, IgG1, V domains shown)
VH: B1 VH
VL: B3 VL with I6Y, V7S, H8A, H9Y, S10P, D11A, A14S, F15H, D20Q
B8: B15700 (Fab, V domains shown)
VH: EVQLVESGGGLVQPGGSLRLSCAASGFTFSGYAIHWVRQAPGKGLEWIGIISPSGGGTKYAQKFQGRVTISRDNSKNTLYLQLNSLRAEDTAVYYCARHPFAYWGQGTLVTVSS
VL: DIQLTQSPSSLSASVGDRVTITCRASQSVDFYGISFLDWYQQKPGKAPKLLIYDASNRATGIPSRFSGSGSGTDFTLTISSLQPEDFATYYCQQYVSSPPEYTFGQGTKVEIKR
B9: B15709 (Fab, V domains shown)
VH: EVQLVESGGGLVQPGGSLRLSCAASGFTFSDYAIHWVRQAPGKGLEWIGIISPSSGSTNYAQKFQGRVTISRDNSKNTLYLQLNSLRAEDTAVYYCARDIHSGSSGYYYGFDVWGQGTLVTVSS
VL: B8 VL with Q27E, Y32F, D38A, Q94H, V96T, E101V
B10: B15736 (Fab, V domains shown)
VH: EVQLVESGGGLVQPGGSLRLSCAASGFTFSDYAIHWVRQAPGKGLEWIGIISPSGGSTKYAQKFQGRVTISRDNSKNTLYLQLNSLRAEDTAVYYCARLGYGYFDVWGQGTLVTVSS
VL: DIQLTQSPSSLSASVGDRVTITCRASQSVDFYGISFLHWYQQKPGKAPKLLIYDASSLESGVPSRFSGSGSGTDFTLTISSLQPEDFATYYCVQALQLPLTFGQGTKVEIKR
B11: TY22775 (antibody, V domains shown)
VH: B1 VH
VL: EVGHSDCDAFYPYCDSSGRSAGGGGTPLGLAGSGGSDIQLTQSPSSLSASVGDRVTITCRASQSVRGRFLAWYQQKPGKAPKLLIYDASNRATGIPSRFSGSGSGTDFTLTISSLQPEDFATYYCQQSSSWPPTFGQGTKVEIKR
B12: TY22776 (antibody, V domains shown)
VH: B1 VH
VL: B11 VL with H4S, D8V, A9P, F10Y, P12Y, Y13A, D15A, S16Y

Residue numbers refer to the chain shown, from its start.

The first assay deals with T1, recombinant human CTLA4-Fc (Sino …). The assay can be described thus: ELISA, CTLA4-Fc coated, batch 1. Here is the method:
(§1) Plates were blocked with PBS supplemented with 3% non-fat milk at 37° C. for 1 hour. After washing, 100 μL, of 3-fold serial dilutions of antibodies were added to each well. After incubation at 37° C. for 1 hour, plates were washed four times, and 100 μL HRP conjugated anti-human IgG (Fab specific) (1:6000 dilution) was added to each well. Plates were incubated at 37° C. for 1 hour, washed four times, and then 50 μL TMB substrate solution was added to each well, and the plate was incubated at room temperature. […] The EC50 was evaluated by fitting the ELISA data using the asymmetrical sigmoidal (five-parameter logistic equation) model of GraphPad Prism 6 software.
With B1, the LogEC50 was -7.62.

For the molecule B2, the LogEC50 is -6.75.

Turning to B3, the LogEC50 was -6.32.

The target is the same in another assay. The assay can be described thus: ELISA; EC50 over EC50 of TY21580. Here is the method: Plates were incubated at 37° C. for 1 hour, washed four times, and then 50 μL TMB substrate solution was added to each well, and the plate was incubated at room temperature. […] The EC50 was evaluated by fitting the ELISA data using the asymmetrical sigmoidal (five-parameter logistic equation) model of GraphPad Prism 6 software.
The purified activatable antibodies were treated with the proteases which recognize the cleavage sequences, and were then tested to determine whether removal of the masking peptide restored their activity. […] The masking efficiency was then measured by ELISA as described above.
On the technique in general: An ELISA detects its analyte on a solid surface through an enzyme-linked reagent.
Consider B2, for which the Masking efficiency turned out to be 216 fold.

For the next assay the target is unchanged. Kind of assay: ELISA, CTLA4-Fc coated, batch 2. How it is done:
as §1
As to B1, the LogEC50 is -7.8.

In the case of B4, the LogEC50 is -6.68.

Consider B5, for which the LogEC50 was -6.79.

B2: the LogEC50 was -6.89.

With B6, the LogEC50 was -7.41.

Regarding B7, the LogEC50 was -7.32.

Take B3: the LogEC50 was -6.9.

A further assay shares this target. The assay can be described thus: ELISA; EC50 over EC50 of TY21580. This is another data set of the same source. Here is the method: as §1
As for B2, the Masking efficiency stood at 572 fold.

As for B3, the Masking efficiency stood at 554 fold.

Another assay concerns the target mouse CTLA4 fused with human FC fragment (mouse, UniProt P09793 36-162, limits assumed). Kind of assay: ELISA, Fab captured.
On to B8, for which the binding result was “binds”.

On to B9, for which the binding result is reported as “binds”.

Take B10: the binding result is reported as “binds”.

In a further assay the target is T1, recombinant human CTLA4-Fc (Sino …). The assay can be described thus: ELISA, Fab captured.
As to B8, the binding result was “binds”.

For B9, the binding result was “binds”.

For B10, the binding result is listed as “binds”.

The next assay shares this target. Kind of assay: ELISA; EC50 over EC50 of TY21580. The source holds these as a separate data set. Here is the method: as §1
As to B11, the Masking efficiency worked out at 168 fold.

For B5, the Masking efficiency is 489 fold.

Take B2: the Masking efficiency turned out to be 308 fold.

Regarding B7, the Masking efficiency was 144 fold.

As for B3, the Masking efficiency worked out at 243 fold.

For the molecule B12, the Masking efficiency came out at 296 fold.

Another assay has the same target. The assay can be described thus: ELISA; EC50 over EC50 of TY21580. This is another data set of the same source. How it is done: as §1
Turning to B2, the Masking efficiency is 469 fold.
